Reference: patent US20170327594A1 (UNIVERSIT T STUTTGART, published 2017)
Each block holds one binder with its values, some of them ahead of it.

Tests used:
EGFR-Fc fusion protein [1] = target: T1, EGFR-Fc fusion protein (UniProt P00533 25-645, limits assumed); assay: ELISA on immobilized EGFR-Fc
T1 construct: extracellular domain; also called Fc fusion protein of the extracellular region of EGFR; immobilized EGFR; not shown: Fc part

HER2-Fc fusion protein = target: T2, HER2-Fc fusion protein (UniProt P04626 23-652, limits assumed); assay: ELISA on immobilized HER2-Fc
T2 construct: extracellular domain; also called Fc fusion protein of the extracellular region of HER2; not shown: Fc part

EGFR on tumor cell lines [2] = target: T3, EGFR on tumor cell lines (UniProt P00533 25-1210, limits assumed); assay: flow cytometry, Colo205 and NCI-H460 cells
T3 construct: whole, on cells; Endogenous receptor of tumor cell lines; also called EGFR on A431, HT1080, NCI-H460, Colo205 cells

[3] = target: T4, recombinant TRAIL-R1 (receptor-Fc fusion protein) (UniProt O00220 24-239, limits assumed); assay: ELISA on recombinant receptor-Fc
T4 construct: also called TRAIL receptor 1; not shown: Fc part

EGFR on tumor cell lines [4] = target: T3, EGFR on tumor cell lines; assay: cell-based or functional assay
EGFR on tumor cell lines [5] = target: T3, EGFR on tumor cell lines; assay: cell-based or functional assay; remark: listed apart in the source
EGFR-Fc fusion protein [6] = target: T1, EGFR-Fc fusion protein; assay: ELISA titration on immobilized EGFR; the scFv is the weaker comparator
EGFR-Fc fusion protein [7] = target: T1, EGFR-Fc fusion protein; assay: ELISA on immobilized receptor-Fc
HER3-Fc fusion protein = target: T5, HER3-Fc fusion protein (UniProt P21860 20-643, limits assumed); assay: ELISA on immobilized receptor-Fc
T5 construct: extracellular domain; Negative control; also called Fc fusion protein of the extracellular region of HER3; not shown: Fc part

EGFR on tumor cell lines [8] = target: T3, EGFR on tumor cell lines; assay: flow cytometry, NCI-H460 cells
Method: Bound proteins were detected with a FITC-labelled anti-His-tag antibody.
Furthermore, the antibody-MHD2 fusion proteins were analyzed by flow cytometry for binding to different tumor cell lines expressing various amounts of EGFR and HER2 (FIG. 4b).

binding result (EGFR-Fc fusion protein [1]): binds | binding result (HER2-Fc fusion protein): no binding | binding result (EGFR on tumor cell lines [2]): binds
B1: scFvEGFR-EHD2 (scFv)
chain: DAAQPAMAEVQLVESGGGLVQPGGSLRLSCAASGFSLTNYGVHWVRQAPGKGLEWLGVIWSGGNTDYNTPFTSRFTISRDNSKNTLYLQMNSLRAEDTAVYYCARALTYYDYEFAYWGQGTTVTVSSGGGGSGGGGSGGGGSDIQLTQSPSFLSASVGDRVTITCRASQSIGTNIHWYQQKPGKAPKLLIKYASESISGVPSRFSGSGSGTEFTLTISSLQPEDFATYYCQQNNNWPTTFGAGTKLEIKRGSLGGSGGDFTPPTVKILQSSCDGGGHFPPTIQLLCLVSGYTPGTINITWLEDGQVMDVDLSTASTTQEGELASTQSELTLSQKHWLSDRTYTCQVTYQGHTFEDSTKKCADSNGGGSGGGTGSEFAAAHHHHHH
notes: Bivalent homodimer: anti-EGFR scFv at the N-terminus of the IgE heavy chain domain 2, hexahistidyl-tagged; also called scFv-EHD2

binding result [3]: binds | binding result (HER2-Fc fusion protein): no binding
B2: scFvEGFR-EHD2-scTRAIL (other)
chain: DYKDDDDKGGGGSAAQPAMAEVQLVESGGGLVQPGGSLRLSCAASGFSLTNYGVHWVRQAPGKGLEWLGVIWSGGNTDYNTPFTSRFTISRDNSKNTLYLQMNSLRAEDTAVYYCARALTYYDYEFAYWGQGTTVTVSSGGGGSGGGGSGGGGSDIQLTQSPSFLSASVGDRVTITCRASQSIGTNIHWYQQKPGKAPKLLIKYASESISGVPSRFSGSGSGTEFTLTISSLQPEDFATYYCQQNNNWPTTFGAGTKLEIKRAAAGGSGGDFTPPTVKILQSSCDGGGHFPPTIQLLCLVSGYTPGTINITWLEDGQVMDVDLSTASTTQEGELASTQSELTLSQKHWLSDRTYTCQVTYQGHTFEDSTKKCADSNGGSGGEFTRGTSEETISTVQEKQQNISPLVRERGPQRVAAHITGTRGRSNTLSSPNSKNEKALGRKINSWESSRSGHSFLSNLHLRNGELVIHEKGFYYIYSQTYFRFQEEIKENTKNDKQMVQYIYKYTSYPDPILLMKSARNSCWSKDAEYGLYSIYQGGIFELKENDRIFVSVTNEHLIDMDHEASFFGAFLVGGGGSGGGSTSEETISTVQEKQQNISPLVRERGPQRVAAHITGTRGRSNTLSSPNSKNEKALGRKINSWESSRSGHSFLSNLHLRNGELVIHEKGFYYIYSQTYFRFQEEIKENTKNDKQMVQYIYKYTSYPDPILLMKSARNSCWSKDAEYGLYSIYQGGIFELKENDRIFVSVTNEHLIDMDHEASFFGAFLVGGGGSGGGSTSEETISTVQEKQQNISPLVRERGPQRVAAHITGTRGRSNTLSSPNSKNEKALGRKINSWESSRSGHSFLSNLHLRNGELVIHEKGFYYIYSQTYFRFQEEIKENTKNDKQMVQYIYKYTSYPDPILLMKSARNSCWSKDAEYGLYSIYQGGIFELKENDRIFVSVTNEHLIDMDHEASFFGAFLVG
notes: Homodimer: anti-EGFR scFv, EHD2, single-chain TRAIL, FLAG-tagged; also called scFv-EHD2-scTRAIL; anti-EGFR scFv-EHD2-scTRAIL
IC50 (nM), in vitro cytotoxicity, Colo205, no bortezomib, no cetuximab (EGFR on tumor cell lines [4]): 0.5 nM | IC50 (nM), in vitro cytotoxicity, Colo205, with bortezomib, no cetuximab (EGFR on tumor cell lines [4]): 0.14 nM | IC50 (nM), in vitro cytotoxicity, Colo205, with bortezomib, with cetuximab (EGFR on tumor cell lines [4]): 1.43 nM | IC50 (nM), in vitro cytotoxicity, NCI-H460, no bortezomib, no cetuximab (EGFR on tumor cell lines [4]): 0.32 nM | IC50 (nM), in vitro cytotoxicity, NCI-H460, with bortezomib, no cetuximab (EGFR on tumor cell lines [4]): 0.02 nM | IC50 (nM), in vitro cytotoxicity, NCI-H460, with bortezomib, with cetuximab (EGFR on tumor cell lines [4]): 0.15 nM | cytotoxic activity against EHD2-scTRAIL, no bortezomib (NCI-H460, Colo205) (EGFR on tumor cell lines [5]): ~20 fold

binding result (EGFR-Fc fusion protein [6]): binds
B3: anti-EGFR scFv (hu225) (scFv)
scFv: EVQLVESGGGLVQPGGSLRLSCAASGFSLTNYGVHWVRQAPGKGLEWLGVIWSGGNTDYNTPFTSRFTISRDNSKNTLYLQMNSLRAEDTAVYYCARALTYYDYEFAYWGQGTTVTVSSGGGGSGGGGSGGGGSDIQLTQSPSFLSASVGDRVTITCRASQSIGTNIHWYQQKPGKAPKLLIKYASESISGVPSRFSGSGSGTEFTLTISSLQPEDFATYYCQQNNNWPTTFGAGTKLEIKR
notes: also called monovalent anti-EGFR scFv; scFv directed against EGFR

binding result (EGFR-Fc fusion protein [7]): binds | binding result (HER3-Fc fusion protein): no binding | binding result (EGFR on tumor cell lines [8]): binds
B4: scFvEGFR-MHD2 (scFv)
chain: DAAQPAMAEVQLVESGGGLVQPGGSLRLSCAASGFSLTNYGVHWVRQAPGKGLEWLGVIWSGGNTDYNTPFTSRFTISRDNSKNTLYLQMNSLRAEDTAVYYCARALTYYDYEFAYWGQGTTVTVSSGGGGSGGGGSGGGGSDIQLTQSPSFLSASVGDRVTITCRASQSIGTNIHWYQQKPGKAPKLLIKYASESISGVPSRFSGSGSGTEFTLTISSLQPEDFATYYCQQNNNWPTTFGAGTKLEIKRGSLGGSGGAELPPKVSVFVPPRDGFFGNPRKSKLICQATGFSPRQIQVSWLREGKQVGSGVTTDQVQAEAKESGPTTYKVTSTLTIKESDWLGQSMFTCRVDHRGLTFQQNASSMCVPDGGGSGGGTGSEFAAAHHHHHH
notes: Bivalent homodimer: humanized anti-EGFR scFv (hu225) at the N-terminus of the IgM heavy chain domain 2, C-terminal His6; also called scFvA-MHD2; scFv-MHD2
